Experimental data: patent publication US20230321260A1

Target: MBP-RumTrunkD9NTag
Assay: isopeptide coupling to RumTrunkD9NTag-MBP, 5 uM each, 37 C, SDS gel (time given as 50 minutes and as 3 h)

Work on SpyCatcher-VLP yielded a Percentage reconstitution of 11.9%.
